Sequences and labels used below:
B1: PP31-36, human (peptide, UniProt P01298 60-65, looked up)
peptide: LTRPRY-NH2
notes: range 60-65; also called human PP31-36
B2: PP13-36, human (peptide, UniProt P01298 42-65, looked up)
peptide: TPEQMAQYAADLRRYINMLTRPRY-NH2
notes: range 13-36
B3: human neuropeptide Y (peptide)
peptide: not shown
modifications: C-terminal amide
B4: human peptide YY (peptide)
peptide: not shown
modifications: C-terminal amide
notes: mature; also called human PYY; PYY, human
B5: PP27-36, human (peptide, UniProt P01298 56-65, looked up)
peptide: YINMLTRPRY-NH2
notes: range 27-36
B6: PP2-36, human (peptide, UniProt P01298 31-65, looked up)
peptide: PLEPVYPGDNATPEQMAQYAADLRRYINMLTRPRY-NH2
B7: human pancreatic polypeptide (peptide, UniProt P01298 30-65, looked up)
peptide: APLEPVYPGDNATPEQMAQYAADLRRYINMLTRPRY-NH2
notes: mature; also called human PP; PP, human
B8: [Ile^31, Gln^34]PP, human (peptide, UniProt P01298 30-65, looked up)
peptide: APLEPVYPGDNATPEQMAQYAADLRRYINMITRQRY-NH2
notes: mature
B9: PP, rat (peptide, UniProt P06303 30-65, looked up)
peptide: APLEPMYPGDYATHEQRAQYETQLRRYINTLTRPRY-NH2
notes: mature; also called rat PP
B10: PP, bovine (peptide, UniProt P01302 30-65, looked up)
peptide: APLEPEYPGDNATPEQMAQYAAELRRYINMLTRPRY-NH2
notes: mature; also called bovine PP
B11: porcine PYY13-36 (peptide, UniProt P68005 13-36, looked up)
peptide: SPEELSRYYASLRHYLNLVTRQRY-NH2
notes: range 13-36; also called PYY13-36, porcine
B12: Phe-Met-Arg-Phe-Amide (peptide)
peptide: FMRF-NH2
notes: Tetrapeptide invertebrate neurotransmitter; also called FMRF-amide; FMRFamide

Where no end group is shown, it is not given here.

Usually Ki stands for a dissociation constant, usually derived from enzyme kinetics or from competition with a known ligand. A high value points to lower affinity.

T1 sequence (P0DQD5 whole entry): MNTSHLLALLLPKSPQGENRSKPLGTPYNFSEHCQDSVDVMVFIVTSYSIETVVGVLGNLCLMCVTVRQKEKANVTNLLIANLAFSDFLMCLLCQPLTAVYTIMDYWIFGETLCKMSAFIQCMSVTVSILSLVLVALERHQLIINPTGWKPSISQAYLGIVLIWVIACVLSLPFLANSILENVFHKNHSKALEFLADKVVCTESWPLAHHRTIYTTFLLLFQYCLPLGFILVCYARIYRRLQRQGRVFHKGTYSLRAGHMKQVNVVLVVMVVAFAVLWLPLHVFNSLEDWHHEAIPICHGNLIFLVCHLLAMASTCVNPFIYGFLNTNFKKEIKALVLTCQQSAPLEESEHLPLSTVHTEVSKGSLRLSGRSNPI

The first experiment addresses T1, human Y4 receptor (human, UniProt P0DQD5 1-375). The experiment can be described thus: cell-based or functional assay.
With B1, the “EC50, inhibition of forskolin-stimulated cAMP accumulation, LM(tk-) cells” value (shortened to “EC50, inhibition”) was 89000 nM.

For B2, the “EC50, inhibition” value stood at 580 nM.

In the case of B3, the “EC50, inhibition” value amounted to 20 nM.

Regarding B4, the “EC50, inhibition” value is 47 nM.

Take B5: the “EC50, inhibition” value was determined as 3500 nM.

Regarding B6, the “EC50, inhibition” value was 0.08 nM.

Take B7: the “EC50, inhibition” value is 0.09 nM.

For the molecule B8, the “EC50, inhibition” value came out at 0.27 nM.

The target in the next experiment is T2, rat Y4 receptor (rat, UniProt Q63447 1-375).
T2 construct: Full-length receptor (375 aa) transiently expressed in COS-7 cells; membranes used; also called rs16b; rat Y4 homolog
T2 sequence (Q63447 whole entry R262P): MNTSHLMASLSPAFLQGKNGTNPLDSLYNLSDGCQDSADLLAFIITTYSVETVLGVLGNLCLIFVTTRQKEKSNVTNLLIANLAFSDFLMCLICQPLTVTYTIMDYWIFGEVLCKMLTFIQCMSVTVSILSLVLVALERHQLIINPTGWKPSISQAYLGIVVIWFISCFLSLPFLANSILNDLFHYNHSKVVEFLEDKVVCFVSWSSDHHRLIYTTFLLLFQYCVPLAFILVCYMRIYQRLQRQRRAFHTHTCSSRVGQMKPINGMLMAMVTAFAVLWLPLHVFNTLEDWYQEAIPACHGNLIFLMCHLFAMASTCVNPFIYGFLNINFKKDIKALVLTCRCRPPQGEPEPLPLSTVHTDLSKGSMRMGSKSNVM
Put plainly: 125I-PYY displacement, COS-7 membranes.
Consider B1, for which the affinity, expressed as Ki, was 20 nM.

In the case of B9, the Ki worked out at 0.2 nM.

Regarding B7, the Ki worked out at 0.12 nM.

B10: affinity was put at a Ki of 0.15 nM.

In another experiment the target is T1, human Y4 receptor. The experiment can be described thus: 125I-PYY displacement, COS-7 membranes.
Consider B1, for which affinity was put at a Ki of 350 nM. That is a sub-micromolar value.

B9 displayed a Ki of 0.18 nM.

Regarding B10, the Ki worked out at 0.05 nM. This Ki lies about 3.6-fold lower than the previous one.

A further experiment addresses T1, human Y4 receptor. The experiment can be described thus: 125I-PYY displacement, COS-7 membranes. This is another data set of the same source.
Regarding B7, the inhibition constant (Ki) came to 0.02 nM.

The target in another experiment is T3, human Y1 receptor (human, UniProt P25929 1-384).
T3 construct: Transiently expressed in COS-7 cells; membranes used; also called cloned human Y1 receptor (Larhammar et al., 1992)
T3 sequence: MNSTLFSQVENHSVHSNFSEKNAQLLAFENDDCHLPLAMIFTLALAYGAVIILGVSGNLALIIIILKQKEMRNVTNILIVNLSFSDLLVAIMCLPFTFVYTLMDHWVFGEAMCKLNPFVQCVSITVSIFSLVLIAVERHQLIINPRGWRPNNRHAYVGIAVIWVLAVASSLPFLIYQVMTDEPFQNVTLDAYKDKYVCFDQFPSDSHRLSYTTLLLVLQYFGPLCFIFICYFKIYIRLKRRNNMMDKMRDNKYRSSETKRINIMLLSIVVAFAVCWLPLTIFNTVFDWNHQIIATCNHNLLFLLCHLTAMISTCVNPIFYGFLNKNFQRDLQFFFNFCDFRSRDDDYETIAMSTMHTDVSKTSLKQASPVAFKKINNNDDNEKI
Put plainly: 125I-PYY displacement, COS-7 membranes. The protocol:
(§1) Data are representative of at least two independent experiments, with each point measured once or in duplicate.
(§2) Radioligand Binding to Membrane Suspensions: Membrane suspensions were diluted in binding buffer supplemented with 0.1% bovine serum albumin and 0.1% bacitracin to yield an optimal membrane protein concentration: ~0.02 mg/ml for human Y1 receptors, ~0.015 mg/ml for hp25a receptors, and ~0.25 mg/ml for SK-N-Be(2). […] Incubations were terminated by filtration over Whatman GF/C filters (pre-coated with 0.5% polyethyleneimine and air-dried before use). […] Binding data were analyzed using nonlinear regression and statistical techniques available in the GraphPAD InPlot package (San Diego, Calif.).
In turn, B4 displayed a Ki of 0.085 nM.

For another experiment, the target named is T1, human Y4 receptor. Put plainly: 125I-PYY displacement, COS-7 membranes. This is another data set of the same source. The protocol:
as §1, §2
In turn, B4 had a Ki of 0.62 nM.

Turning to B11, affinity was put at a Ki of 47 nM.

A further experiment deals with T3, human Y1 receptor. Put plainly: 125I-PYY displacement, COS-7 membranes. The source holds these as a separate data set. The protocol: as §2, with “Calif.). […] Whatman GF/C filters were from Brandel (Gaithersburg, Md.). Bio-Rad Reagent was from Bio-Rad (Hercules, Calif.). Bovine serum albumin and bacitracin were from Sigma (St. Louis, Mo.). All other materials were reagent grade.” for “Calif.).”
Molecule B9 registered a Ki of 460 nM. In other words, the sub-micromolar range.

As to B4, the Ki was determined as 0.19 nM.

Consider B10, for which the Ki was 240 nM.

In another experiment the target is T1, human Y4 receptor. Put plainly: 125I-PYY displacement, COS-7 membranes. The source holds these as a separate data set. The protocol: as §2, with “Calif.). […] Whatman GF/C filters were from Brandel (Gaithersburg, Md.). Bio-Rad Reagent was from Bio-Rad (Hercules, Calif.). Bovine serum albumin and bacitracin were from Sigma (St. Louis, Mo.). All other materials were reagent grade.” for “Calif.).”
Molecule B1 returned a Ki of 350 nM.

B2: the Ki was found to be 39 nM. This Ki is about 9-fold lower than that of the molecule before.

In turn, B9 returned an inhibitory constant (Ki) of 0.18 nM. Compared with the last molecule, the Ki is about 220-fold lower.

Turning to B12, the Ki worked out at 4000 nM.

The molecule B8 displayed a Ki of 0.09 nM.

B10 displayed an inhibition constant (Ki) of 0.05 nM.

Another experiment deals with T1, human Y4 receptor. The experiment can be described thus: 125I-PYY displacement, COS-7 membranes (as in Table 3). The protocol:
as §2, with “Calif.). […] Whatman GF/C filters were from Brandel (Gaithersburg, Md.). Bio-Rad Reagent was from Bio-Rad (Hercules, Calif.). Bovine serum albumin and bacitracin were from Sigma (St. Louis, Mo.). All other materials were reagent grade.” for “Calif.).”
B1 yielded a Ki of over 10000 nM.

B2 yielded a Ki of 39 nM. That is a double-digit nanomolar value.

Regarding B5, the Ki was over 88 nM.

In the case of B8, affinity was put at a Ki of 0.09 nM.

These data come from patent publication US6913892 (H LUNDBECK A S, dated 2005).
